Key:
[1] = target: T1, human CD47, endogenous cell surface form (human, UniProt Q08722 19-323); test: cell-based or functional assay
T1 construct: Endogenous CD47 on human tumor cell lines; also called cell surface CD47; CD47 on Raji, CCRF-CEM and Daudi cells

[2] = target: T1, human CD47, endogenous cell surface form; test: as described in Examples 2 and 3
Excerpt: Exemplary murine CD47 antibodies disclosed here are shown in FIG. 2, as disclosed in U.S. patent application Ser. No. 13/960,136 (Publication No. US20140140989).

B1: CD47 antibody B6H12 (antibody, from another filing, V domains shown)
VH: EVQLVESGGDLVKPGGSLKLSCAASGFTFSGYGMSWVRQTPDKRLEWVATITSGGTYTYYPDSVKGRFTISRDNAKNTLYLQIDSLKSEDTAIYFCARSLAGNAMDYWGQGTSVTVSS
VL: DIVMTQSPATLSVTPGDRVSLSCRASQTISDYLHWYQQKSHESPRLLIKFASQSISGIPSRFSGSGSGSDFTLSINSVEPEDVGVYYCQNGHGFPRTFGGGTKLEIK
How did the phagocytosis of tumor cells (CFSE-labeled CCRF-CEM) by monocyte derived macrophages [1] turn out when B1 was run?
Its phagocytosis of tumor cells (CFSE-labeled CCRF-CEM) by monocyte derived macrophages is 66.7 pM.

B2: murine 9E4 antibody (antibody, mouse IgG1, V domains shown)
VH: EVQLRQSGPELVKPGASVKISCKASGYSFTDYYMYWVKQSRVRSLAWIGRINPYTGATGYDQNFKDKASLIVDKSSSTAYMELRSLTSEDSAVYYCARGRNRYDGWFAYWGQGTLVTV
VL: EIQMTQTTSSLSASLGDRVTISCRASQDISNYLNWYQQKPDGTVKLLIYYTSRLHSGVPSRFSGSGSGTDYSLTISNLDQEDIATYFCQQGNALPPTFGGGTNLEIK
Does B2 bind [2]?
Result: binds
